{
  "source": "paper PMC13572001",
  "about": "“Sequence-based artificial intelligence-guided inhibitory peptides to counteract AAV neutralizing antibodies in gene therapy” (Molecular Therapy Advances, 2026)",
  "assay": "Safety assessment after i.p. peptide mixture in mice",
  "details": "positive control, same conditions, day 7",
  "description": "To assess potential immunogenicity following peptide administration, we performed enzyme-linked immunosorbent assays (ELISA) to measure peptide-specific IgG responses.\n(E) Detection of peptide-specific IgG in plasma by ELISA following peptide or control antigen administration.\nMice were injected (i.p.) with human-derived or viral-derived peptide mixtures, or OVA protein (InvivoGen #vac-pova). Plasma was collected at 24 h for cytokine analysis (BD #552364) and at day 7 for peptide- or OVA-specific antibody detection via direct ELISA.",
  "data": [
    {"molecule": "OVA: OVA protein (InvivoGen #vac-pova), positive control (protein, UniProt P01012 2-386, looked up) Ovalbumin: GSIGAASMEFCFDVFKELKVHHANENIFYCPIAIMSALAMVYLGAKDSTRTQINKVVRFDKLPGFGDSIEAQCGTSVNVHSSLRDILNQITKPNDVYSFSLASRLYAEERYPILPEYLQCVKELYRGGLEPINFQTAADQARELINSWVESQTNGIIRNVLQPSSVDSQTAMVLVNAIVFKGLWEKAFKDEDTQAMPFRVTEQESKPVQMMYQIGLFRVASMASEKMKILELPFASGTMSMLVLLPDEVSGLEQLESIINFEKLTEWTSSNVMEERKIKVYLPRMKMEEKYNLTSVLMAMGITDVFSSSANLSGISSAESLKISQAVHAAHAEINEAGREVVGSAEAGVDAASVSEEFRADHPFLFCIKHIATNAVLFFGRCVSP", "values": [
      {"measurement": "OVA-specific antibody response (direct ELISA)", "value": "robust antibody response"}
    ]}
  ]
}
